In patent US20080152587A1:

What follows are substances tested against mouse uPAR on the surface of NCTC L929 cells (mouse) (UniProt P35456) (assay: FACS, NCTC L929 mouse cells, secondary alone).
Sequence of mouse uPAR on the surface of NCTC L929 cells (mouse) (P35456 24-298): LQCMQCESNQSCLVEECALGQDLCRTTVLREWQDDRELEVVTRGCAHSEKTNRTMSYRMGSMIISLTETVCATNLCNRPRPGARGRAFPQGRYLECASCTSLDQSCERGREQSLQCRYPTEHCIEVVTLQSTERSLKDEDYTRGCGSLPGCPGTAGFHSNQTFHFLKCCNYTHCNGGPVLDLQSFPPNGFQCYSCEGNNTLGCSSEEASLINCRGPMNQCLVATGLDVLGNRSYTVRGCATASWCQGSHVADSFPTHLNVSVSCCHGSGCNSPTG

| X Geo mean | Substance |
| --- | --- |
| 7.63 | secondary antibody alone, Cy5-labeled goat anti-human IgG Fc |
| 3.22 | secondary antibody alone for mouse antibodies |
| 13.1 | secondary antibody alone for rat antibodies |
